According to the supplement of paper PMC10567573:

B1: CAMK2B (parent)
chain: YQQIKAGAYDFPSPEWDTVTPEAK
B2: SLC2A12 (parent)
chain: LTLVFFVQITGQPNILFYASTVLK

Variants of: B1
Assay: protein stability index of a GFP-peptide fusion (GPS, HEK-293T) (PSI 1-6); higher = more stable
Conditions: c terminus: a fixed tail appended
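Note: lentivirally expressed fusions sorted by FACS into six bins by GFP to DsRed ratio, PSI derived from sequencing read proportions per bin multiplied by bin number.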

Protein stability index, by site and new letter:
P14: A 3.96; R 3.37; E 4.47; G 4.03; C 3.45; T 3.82; V 3.39; H 3.65; Y 2.89; N 3.88; M 3.55; W 2.57; Q 3.87; D 4.42; I 3.4; L 3.17; K 3.85; S 3.71; F 2.67
I4: S 3.02; D 4.32; C 3.09; Q 3.78; T 3.58; E 4.26; A 3.46; R 3.06; V 3.93; N 3.41; K 3.42; M 3.66; G 3.34; F 3.19; L 3.81; H 3.56; W 2.05; P 3.58; Y 3.21
P12: I 3.21; E 4.09; W 3.5; D 4.01; Y 3.71; F 2.25; Q 4; N 3.94; L 2.9; M 3.08; H 3.21; T 3.36; A 2.94; S 3.29; C 2.76; V 2.81; R 2.34; G 3.71; K 3.3
Y1: P 4.94; Q 4.92; R 4.83; W 4.15; F 3.33; I 3.89; G 5.11; K 4.88; L 4.75; T 4.88; V 4.69; S 4.94; M 5.04; C 4.45; H 4.58; A 4.94; D 5.38; E 5.13; N 5.21
A8: E 3.95; H 3.79; C 3.44; W 2.26; N 3.95; D 3.91; K 3.66; M 3.44; L 3.03; P 3.02; R 3.14; Y 3.31; T 3.44; V 3.16; S 3.75; F 2.84; Q 3.68; I 3.05; G 3.61
E15: G 2.72; H 2.91; D 3.86; C 2.42; A 2.93; F 2.14
A6: F 2.9; L 3.09; W 2.28; C 3.37; S 3.59; T 3.62; M 3.96; G 3.13; R 2.38; V 3.12; E 4.41; P 3.82; H 3.24; D 4.28; Y 3.16; I 2.77; K 3.22; Q 3.92; N 3.44
S13: C 2.74; H 3.25; R 3.29; K 3.4; M 2.75; F 2.79; Y 3.6; N 3.69; D 4.08; V 3.18; T 3.69; L 3.29; G 4.11; A 3.24; W 2.8; Q 2.9; I 3.37; E 4.12
D10: C 2.25; A 2.72; G 2.23; T 2.61; I 1.99; E 3.55; Q 2.67; V 2.41; L 2.4; R 2.05; M 2.7; W 2.83; N 2.52; Y 1.79; F 1.98; P 2.7; H 2.54; S 2.39; K 2.25
Y9: Q 4.48; M 4.1; L 4.04; S 4.3; E 4.71; G 4.6; R 3.64; A 4.37; C 3.79; I 3.9; P 4.17; K 3.99; D 4.73; W 2.48; N 4.26; V 4.13; F 3.5; H 4.14; T 4.23
F11: P 4.67; A 4.58; W 3.15; G 4; M 4.04; R 3.73; L 3.97; E 4.72; Y 3.95; D 4.63; N 4.37; H 4.2; S 4.36; V 4.15; C 4; T 4.43; K 3.91; I 3.8; Q 4.24
Q3: L 3.38; E 4.59; Y 2.6; R 2.22; T 3.28; A 2.11; G 2.68; H 3.28; N 3.62; I 3.15; M 2.88; V 3.44; D 3.94; W 2.09; S 2.8; K 2.75; F 2.55; C 2.17; P 3.03
K5: S 3.64; F 3.12; R 3.34; T 4; A 4.07; E 4.84; P 3.71; C 3.58; G 3.88; M 4.04; W 1.95; V 3.77; D 4.39; H 3.46; Q 3.77; Y 3.11; I 3.35; L 3.6; N 3.92
Q2: P 3.67; A 3.12; W 3.06; K 3.8; V 1.8; L 3.35; T 3.67; D 4.78; E 4.64; G 3.7; C 2.87; I 2.28; F 3.46; R 4.06; H 2.88; N 4.51; Y 3.6; S 4.34; M 3.95
G7: Y 1.87; P 3.86; R 2.96; W 2.31; D 3.99; S 3.78; I 3.25; H 3.69; E 4.23; K 3.27; V 3.53; A 3.79; M 3.23; F 1.86; L 3; Q 3.92; C 2.77; N 3.77; T 3.83

Variants of: B2
Assay: as above
Conditions: c terminus: a fixed tail appended

Protein stability index of substitutions, site by site:
T21: W 3.97; L 2.38; C 3.33; N 3.31; I 3.71; Q 2.97; D 3.9; S 3.13; E 2.46; F 3.22; M 3.09; P 3.23
S20: Q 2.48; M 2.78; N 2.84; I 4.31; T 4.03; F 4.03; G 3.23; W 4.76; E 3.34; Y 3.22; P 2.92; C 2.27; K 3.97
L23: V 2.58; R 3.18; S 3.26; T 3.09; E 2.83; W 1.83; N 2.74; Y 3.92; H 2.38; Q 3.05; M 3.81
V22: D 3.37; P 3.9; F 2.78; C 2.2; S 1.93; I 3.81; L 2.28; Y 3.57; N 2.78; Q 4.34; R 3.38; A 4.16
K24: D 2.73; F 3.17; P 1.8; W 2.76; N 4.33; Y 4.23; Q 4.06; A 2.9; S 3.98; T 2.2; V 3.5; E 3.5; L 1.12; H 2.21; I 2.92
